Experimental findings from article PMC12487865 are described below.

The experiment deals with FGFR1 (UniProt P16092). In words: co-IP, Nf2-Flag mutants with FGFR1-HA. The following applies: reference: wild-type Nf2.

For “Nf2 (Merlin) (from UniProt P46662) S315A”, the “binding against the reference” value (sites S315) is given as “lost”.

Turning to “Nf2 (Merlin) (from UniProt P46662) S518A”, the “binding against the reference” value (sites S518) is given as “lost”.
